Laboratory results as given in patent US20040191910, “Genes encoding plant transcription factors” (International Research Center for Agricultural Sciences, published 2004).

Biological target: OsDREB2A (Oryza sativa, UniProt A2WL19 SEQ:1-163)
Assay: EMSA; room temperature 20 min, 5% PAGE 0.25x TBE
Conditions: tags: N-terminal GST (pGEX-4T-1), cDNA nt 334-822; label: 32P
Method: The E. coli into which the protein had been induced was suspended in 18 ml of buffer (10 mM Tris-HCl, pH 8.0, 0.1 mM EDTA, 5 mM MgCl₂, 400 mM NaCl, 5% glycerol, 0.1 mM phenylmethylsulfonyl fluoride, 0.1 mM dithiothreitol). Then, 1% Triton X-100 and 1 mM EDTA were added thereto. After the cells were disrupted by sonication, the disrupted material was centrifuged at 20,000 g for 1 hour. Then, the protein was purified from the supernatant using glutathione-Sepharose (Pharmacia). The resultant fusion protein was incubated at room temperature for 20 minutes using the DRE sequence-containing 75 bp DNA fragment (SEQ ID NO: 16) labeled with ³²P as a probe. This mixture was electrophoresed using 5% polyacrylamide containing 0.25×Tris-borate-EDTA at 120 V for 90 minutes. As a result of this gel shift assay, those bands which migrated to the back were detected. When the DNA fragment containing the mutated DRE sequence was used as a probe, such bands were not detected. Thus, it became evident that OsDREB1A and OsDREB2A proteins specifically bind to the DRE sequence (FIG. 4).

Chain of OsDREB2A (A2WL19 1-163): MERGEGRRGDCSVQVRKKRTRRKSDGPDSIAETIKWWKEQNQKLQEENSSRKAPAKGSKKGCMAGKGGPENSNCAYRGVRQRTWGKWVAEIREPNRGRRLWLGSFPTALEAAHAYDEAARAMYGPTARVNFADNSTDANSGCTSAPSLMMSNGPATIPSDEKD

B1: DRE 75 bp fragment of rd29A promoter (dsDNA)
DNA 1: ACATCAGTTTGAAAGAAAAGGGAAAAAAAGAAAAAATAAATAAAAGATATACTACCGACATGAGTTCCAAAAAGC
DNA 2: GCTTTTTGGAACTCATGTCGGTAGTATATCTTTTATTTATTTTTTCTTTTTTTCCCTTTTCTTTCAAACTGATGT
binding result: binds
